Drawing on patent US20250340637A1 (ABPRO, published 2025), this text covers Kd for six molecules.

Assay in all cases: SPR, Biacore 8K; CD3 Affinity column: Low
(SPR reads the build-up and loss of mass on a sensor chip optically.)

Assay [1] addresses T1, HuCD3E (Homo sapiens, UniProt P07766 23-126, limits assumed).
T1 construct: Recombinant analyte in SPR and antigen in ELISA; also called human CD3; human CD3 epsilon

Assay [2] has as its target T1, HuCD3E. This is another data set of the same source.
For assay [3], the target named is T1, HuCD3E. This is another data set of the same source.
Assay [4] addresses T1, HuCD3E. The source holds these as a separate data set.

For orientation: Kd means the constant that tells how readily two partners part at equilibrium.

Changes are numbered by the printed parent chain. Read-outs that look alike come from different tables or passages of the source.

T1 sequence (P07766 23-126 limits assumed): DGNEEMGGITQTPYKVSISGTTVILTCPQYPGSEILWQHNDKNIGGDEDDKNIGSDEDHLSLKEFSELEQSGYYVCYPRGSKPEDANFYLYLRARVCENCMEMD

B1: 47D10-V7-v5.5 (antibody, V domains shown)
VH: EVQLVESGGGLVQPGGSLKLSCAASGFTFNTYAMNWVRQAPGKGLEWVARIRSKYNNYATYYADSVKDRFTISRDDSKNTAYLQMNSLKTEDTAVYYCVRHGNFGNSYVSWFMYWGQGTLVTVSS
VL: QTVVTQEPSLTVSPGGTVTLTCRSSTGAVTTSNYANWVQQKPGQAFRGLIGGTNKRAPGVPARFSGSLLGGKAALTLSGVQPEDEAIYFCALWYSNLWVFGGGTKLTVL
B1 showed a Kd with HuCD3E [1] of more than 100 nM.

B2: ABP100s.10.0.6 (antibody, V domains shown)
VH: B1 VH with G44C, M113A
VL: B1 VL with A91M, G102C
In the assay with HuCD3E [2], B2 gave a Kd of more than 100 nM.

B3: 47D10-V7-v5.6 (antibody, V domains shown)
VH: B1 VH with M113A
VL: B1 VL with A91M
Take B3: the dissociation constant (Kd) in the assay with HuCD3E [1] was more than 100 nM.

B4: ABP100s.10.6.6 (antibody, V domains shown)
VH: B1 VH with G44C, M113A
VL: B1 VL with A91M, G102C
Turning to B4, in the assay with HuCD3E [3], the Kd is not below 100 nM.

B5: ABP100s.10.0.5 (antibody, V domains shown)
VH: B1 VH with G44C
VL: B1 VL with G102C
Consider B5, for which the Kd with HuCD3E [2] was more than 100 nM.

B6: ABP100s.5.3 (antibody, V domains shown)
VH: B1 VH with M113A
VL: B1 VL with W93Y, T107E, V108I, L109K
Consider B6, for which the Kd with HuCD3E [4] was more than 100 nM.
